Experimental data from patent US20210238296A1 (Genmab, published 2021).
Substitutions are numbered along the chain they refer to. Numbers in names are those of the source.

Legend:
[1] = molecular target: T1, diFCGR3AF-HisBAP (dimeric extracellular domain of FcγRIIIA allotype 158F) (C-terminally biotinylated); test: ELISA, captured antibody 20 ug/mL, dimeric biotinylated FcγR ECD
T1 construct: dimeric, His-tagged, C-terminally biotinylated ECD; also called IIIA-158F

[2] = molecular target: T2, diFCGR2AH-HisBAP (dimeric extracellular domain of FcγRIIA allotype 131H) (Homo sapiens (Human), UniProt P12318 34-215, C-terminally biotinylated); test: as above
T2 construct: dimeric, His-tagged, C-terminally biotinylated ECD; also called IIA-131H
T2 sequence: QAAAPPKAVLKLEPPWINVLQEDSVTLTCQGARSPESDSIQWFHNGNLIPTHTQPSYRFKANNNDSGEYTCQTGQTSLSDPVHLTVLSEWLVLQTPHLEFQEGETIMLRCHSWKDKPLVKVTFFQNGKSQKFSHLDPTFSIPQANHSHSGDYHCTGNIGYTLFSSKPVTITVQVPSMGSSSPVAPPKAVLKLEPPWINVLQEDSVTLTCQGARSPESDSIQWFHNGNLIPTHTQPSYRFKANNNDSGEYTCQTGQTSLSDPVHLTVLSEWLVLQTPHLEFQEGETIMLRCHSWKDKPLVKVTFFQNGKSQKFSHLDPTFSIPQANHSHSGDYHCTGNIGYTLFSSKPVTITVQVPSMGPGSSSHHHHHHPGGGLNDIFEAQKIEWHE

[3] = molecular target: T3, diFCGR3AV-HisBAP (dimeric extracellular domain of FcγRIIIA allotype 158V) (C-terminally biotinylated); test: as above
T3 construct: dimeric, His-tagged, C-terminally biotinylated ECD; also called IIIA-158V

[4] = molecular target: T4, diFCGR2B-HisBAP (dimeric extracellular domain of FcγRIIB) (Homo sapiens (Human), UniProt P31994 44-223, C-terminally biotinylated); test: as above
T4 construct: dimeric, His-tagged, C-terminally biotinylated ECD
T4 sequence: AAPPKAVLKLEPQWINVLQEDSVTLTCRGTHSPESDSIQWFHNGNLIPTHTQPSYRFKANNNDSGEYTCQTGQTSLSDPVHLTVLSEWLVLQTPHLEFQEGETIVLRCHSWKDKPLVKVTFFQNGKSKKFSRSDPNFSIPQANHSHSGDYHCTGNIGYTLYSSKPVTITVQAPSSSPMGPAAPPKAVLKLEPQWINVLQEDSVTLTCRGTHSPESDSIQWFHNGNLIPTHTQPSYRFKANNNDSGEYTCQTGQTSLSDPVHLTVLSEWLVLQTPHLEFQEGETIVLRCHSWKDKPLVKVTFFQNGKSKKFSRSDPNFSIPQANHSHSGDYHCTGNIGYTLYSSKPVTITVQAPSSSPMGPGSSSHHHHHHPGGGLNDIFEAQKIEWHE

[5] = molecular target: T5, diFCGR2AR-HisBAP (dimeric extracellular domain of FcγRIIA allotype 131R) (Homo sapiens (Human), UniProt P12318 36-215, C-terminally biotinylated); test: as above
T5 construct: dimeric, His-tagged, C-terminally biotinylated ECD; also called IIA-131R
T5 chain: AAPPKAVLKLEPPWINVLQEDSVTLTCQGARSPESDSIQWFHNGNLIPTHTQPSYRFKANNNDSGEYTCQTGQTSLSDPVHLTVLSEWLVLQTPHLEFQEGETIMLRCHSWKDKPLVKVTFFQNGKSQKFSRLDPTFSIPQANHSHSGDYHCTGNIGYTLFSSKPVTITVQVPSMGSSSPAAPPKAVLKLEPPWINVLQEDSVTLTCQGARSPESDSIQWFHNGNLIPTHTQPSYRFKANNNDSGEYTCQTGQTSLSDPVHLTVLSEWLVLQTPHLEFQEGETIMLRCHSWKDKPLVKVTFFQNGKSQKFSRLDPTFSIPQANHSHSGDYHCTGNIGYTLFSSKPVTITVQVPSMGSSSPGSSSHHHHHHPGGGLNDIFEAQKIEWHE

[6] = molecular target: T6, C1q (human, UniProt P02745 23-245; P02746 28-253; P02747 29-245); test: flow cytometry of C1q on antibody-opsonized Wien 133 cells, 20% NHS on ice
T6 construct: native C1q in 20% normal human serum, detected with rabbit anti-human C1q-FITC on antibody-opsonized Wien 133 cells; also called human C1q from normal human serum

[7] = molecular target: FCGR1AECDHis (monomeric extracellular domain of FcγRIA) (Homo sapiens (Human), UniProt P12314 16-292); test: ELISA, coated FCGR1AECD-His, 20 ug/mL antibody
[8] = molecular target: T1, diFCGR3AF-HisBAP (dimeric extracellular …); test: ELISA, captured antibody, dimeric biotinylated FcγR ECD
[9] = molecular target: T2, diFCGR2AH-HisBAP (dimeric extracellular …); test: as above
[10] = molecular target: T3, diFCGR3AV-HisBAP (dimeric extracellular …); test: as above
[11] = molecular target: T4, diFCGR2B-HisBAP (dimeric extracellular …); test: as above
[12] = molecular target: T5, diFCGR2AR-HisBAP (dimeric extracellular …); test: as above
[13] = molecular target: T2, diFCGR2AH-HisBAP (dimeric extracellular …); test: FcγR ELISA, 20 ug/mL antibody
[14] = molecular target: T4, diFCGR2B-HisBAP (dimeric extracellular …); test: FcγR ELISA, 20 ug/mL antibody
[15] = molecular target: T5, diFCGR2AR-HisBAP (dimeric extracellular …); test: FcγR ELISA, 20 ug/mL antibody

Sequence of FCGR1AECDHis (monomeric extracellular domain of FcγRIA) (P12314 other isoform, or with tags, fused parts or gaps limits assumed): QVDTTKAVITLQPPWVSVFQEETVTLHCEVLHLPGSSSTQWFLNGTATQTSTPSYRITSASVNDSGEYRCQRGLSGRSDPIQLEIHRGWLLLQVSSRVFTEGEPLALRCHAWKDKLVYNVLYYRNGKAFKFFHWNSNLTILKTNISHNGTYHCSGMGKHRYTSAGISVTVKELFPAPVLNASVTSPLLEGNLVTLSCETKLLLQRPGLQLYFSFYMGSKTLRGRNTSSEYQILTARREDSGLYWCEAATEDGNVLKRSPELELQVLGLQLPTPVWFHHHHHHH
T6 sequence (P02745 23-245 limits assumed, chain 1 of 3): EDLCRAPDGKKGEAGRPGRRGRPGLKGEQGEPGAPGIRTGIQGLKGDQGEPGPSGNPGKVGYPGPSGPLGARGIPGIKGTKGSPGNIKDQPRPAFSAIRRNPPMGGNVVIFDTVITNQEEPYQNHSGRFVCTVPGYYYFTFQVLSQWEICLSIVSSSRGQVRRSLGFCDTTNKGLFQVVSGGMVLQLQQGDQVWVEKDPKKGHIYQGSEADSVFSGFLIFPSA
T6 sequence (P02746 28-253 limits assumed, chain 2 of 3): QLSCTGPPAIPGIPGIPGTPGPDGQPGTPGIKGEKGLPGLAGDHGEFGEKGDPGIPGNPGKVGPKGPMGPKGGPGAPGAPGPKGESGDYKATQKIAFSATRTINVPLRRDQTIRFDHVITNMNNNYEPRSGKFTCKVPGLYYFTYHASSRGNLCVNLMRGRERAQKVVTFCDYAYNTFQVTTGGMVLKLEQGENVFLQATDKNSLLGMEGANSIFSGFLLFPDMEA
T6 sequence (P02747 29-245 limits assumed, chain 3 of 3): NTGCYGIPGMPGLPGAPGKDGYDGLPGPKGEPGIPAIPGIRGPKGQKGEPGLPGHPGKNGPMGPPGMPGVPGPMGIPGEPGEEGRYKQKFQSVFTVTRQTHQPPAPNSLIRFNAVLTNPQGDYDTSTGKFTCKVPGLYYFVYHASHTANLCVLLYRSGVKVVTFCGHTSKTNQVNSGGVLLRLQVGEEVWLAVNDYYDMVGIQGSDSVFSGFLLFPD

B1: IgG1-11B8-E430G-S440K-E333S (antibody)
heavy: EVQLVQSGGGLVHPGGSLRLSCTGSGFTFSYHAMHWVRQAPGKGLEWVSIIGTGGVTYYADSVKGRFTISRDNVKNSLYLQMNSLRAEDMAVYYCARDYYGAGSFYDGLYGMDVWGQGTTVTVSSASTKGPSVFPLAPSSKSTSGGTAALGCLVKDYFPEPVTVSWNSGALTSGVHTFPAVLQSSGLYSLSSVVTVPSSSLGTQTYICNVNHKPSNTKVDKRVEPKSCDKTHTCPPCPAPELLGGPSVFLFPPKPKDTLMISRTPEVTCVVVDVSHEDPEVKFNWYVDGVEVHNAKTKPREEQYNSTYRVVSVLTVLHQDWLNGKEYKCKVSNKALPAPISKTISKAKGQPREPQVYTLPPSREEMTKNQVSLTCLVKGFYPSDIAVEWESNGQPENNYKTTPPVLDSDGSFFLYSKLTVDKSRWQQGNVFSCSVMHGALHNHYTQKKLSLSPGK
light: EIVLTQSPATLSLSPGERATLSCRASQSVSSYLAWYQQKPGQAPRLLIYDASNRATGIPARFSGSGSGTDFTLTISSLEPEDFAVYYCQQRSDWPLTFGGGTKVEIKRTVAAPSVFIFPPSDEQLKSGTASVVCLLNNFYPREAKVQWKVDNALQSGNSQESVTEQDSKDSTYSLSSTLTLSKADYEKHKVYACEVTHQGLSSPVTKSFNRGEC
notes: also called IgG1-11B8-E333S-E430G-S440K
For B1, the “reduction of FcγR binding against IgG1-11B8-E430G-S440K” value (“reduction of FcγR binding” for short) [1] was ~20%, the “reduction of FcγR binding” value [2] was ~50% and the “reduction of FcγR binding” value [3] was ~20%. The “reduction of FcγR binding” value [4] was ~50%, the “reduction of FcγR binding” value [5] was ~50% and the binding result [6] was “binds”.

B2: IgG1-11B8-E430G-S440K-K326A (antibody)
heavy: B1 heavy with K334A, S341E
light: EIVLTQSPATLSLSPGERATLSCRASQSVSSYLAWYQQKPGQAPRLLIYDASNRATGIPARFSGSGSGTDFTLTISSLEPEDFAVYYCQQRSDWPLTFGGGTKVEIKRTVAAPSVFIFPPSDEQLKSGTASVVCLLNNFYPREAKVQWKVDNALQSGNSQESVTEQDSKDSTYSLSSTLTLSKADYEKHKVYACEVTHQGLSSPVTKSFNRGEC
notes: also called IgG1-11B8-K326A-E430G-S440K
B2: binds [2]; binds [4]; binds [5]. B2: binds [6].

B3: IgG1-CAMPATH-1H-E430G-K439E-G236R (antibody)
heavy: QVQLQESGPGLVRPSQTLSLTCTVSGFTFTDFYMNWVRQPPGRGLEWIGFIRDKAKGYTTEYNPSVKGRVTMLVDTSKNQFSLRLSSVTAADTAVYYCAREGHTAAPFDYWGQGSLVTVSSASTKGPSVFPLAPSSKSTSGGTAALGCLVKDYFPEPVTVSWNSGALTSGVHTFPAVLQSSGLYSLSSVVTVPSSSLGTQTYICNVNHKPSNTKVDKRVEPKSCDKTHTCPPCPAPELLRGPSVFLFPPKPKDTLMISRTPEVTCVVVDVSHEDPEVKFNWYVDGVEVHNAKTKPREEQYNSTYRVVSVLTVLHQDWLNGKEYKCKVSNKALPAPIEKTISKAKGQPREPQVYTLPPSREEMTKNQVSLTCLVKGFYPSDIAVEWESNGQPENNYKTTPPVLDSDGSFFLYSKLTVDKSRWQQGNVFSCSVMHGALHNHYTQESLSLSPGK
light: not shown
notes: also called IgG1-CAMPATH-1H-G236R-E430G-K439E; IgG1-CAMPATH-E430G-K439E-G236R
B3: binds [7]; no binding (tested: 20 µg/mL) [8]; no binding (tested: 20 µg/mL) [9]. B3: no binding (tested: 20 µg/mL) [10]; no binding (tested: 20 µg/mL) [11]; no binding (tested: 20 µg/mL) [12].

B4: IgG1-CAMPATH-1H-E430G-K439E-G237Q (antibody)
heavy: B3 heavy with R240G, G241Q
light: not shown
notes: also called IgG1-CD52-Campath-G237Q-E430G-K439E
B4: binds [7].

B5: IgG1-CAMPATH-1H-E430G-K439E-G237R (antibody)
heavy: B3 heavy with R240G, G241R
light: not shown
notes: also called IgG1-CD52-Campath-G237R-E430G-K439E
B5: binds [7].

B6: IgG1-CAMPATH-1H-E430G-K439E-G237T (antibody)
heavy: B3 heavy with R240G, G241T
light: not shown
notes: also called IgG1-CD52-Campath-G237T-E430G-K439E
B6: binds [7]; no binding (tested: 20 µg/mL) [8]; no binding (tested: 20 µg/mL) [9]. B6: no binding (tested: 20 µg/mL) [10]; no binding (tested: 20 µg/mL) [11]; no binding (tested: 20 µg/mL) [12].

B7: IgG1-CAMPATH-1H-E430G-K439E-K322A (antibody)
heavy: B3 heavy with R240G, K326A
light: not shown
notes: also called IgG1-CAMPATH-1H-K322A-E430G-K439E
B7: binds [7]; binds [13]; binds [14]. B7: binds [15].
